Data from PMC3139092 (Journal of Biological Inorganic Chemistry, 2011).
Residue numbers refer to the chain shown, from its start.

T1: mutant Val87 (M11) (Priestia megaterium, UniProt P14779, E144G/E268V/E65G/F82I/F88V/G416S/H286Y/L189Q/R48L/Y199C)
T1 sequence (P14779 1-1049 R48L/E65G/F82I/F88V/E144G/L189Q/Y199C/E268V/H286Y/G416S): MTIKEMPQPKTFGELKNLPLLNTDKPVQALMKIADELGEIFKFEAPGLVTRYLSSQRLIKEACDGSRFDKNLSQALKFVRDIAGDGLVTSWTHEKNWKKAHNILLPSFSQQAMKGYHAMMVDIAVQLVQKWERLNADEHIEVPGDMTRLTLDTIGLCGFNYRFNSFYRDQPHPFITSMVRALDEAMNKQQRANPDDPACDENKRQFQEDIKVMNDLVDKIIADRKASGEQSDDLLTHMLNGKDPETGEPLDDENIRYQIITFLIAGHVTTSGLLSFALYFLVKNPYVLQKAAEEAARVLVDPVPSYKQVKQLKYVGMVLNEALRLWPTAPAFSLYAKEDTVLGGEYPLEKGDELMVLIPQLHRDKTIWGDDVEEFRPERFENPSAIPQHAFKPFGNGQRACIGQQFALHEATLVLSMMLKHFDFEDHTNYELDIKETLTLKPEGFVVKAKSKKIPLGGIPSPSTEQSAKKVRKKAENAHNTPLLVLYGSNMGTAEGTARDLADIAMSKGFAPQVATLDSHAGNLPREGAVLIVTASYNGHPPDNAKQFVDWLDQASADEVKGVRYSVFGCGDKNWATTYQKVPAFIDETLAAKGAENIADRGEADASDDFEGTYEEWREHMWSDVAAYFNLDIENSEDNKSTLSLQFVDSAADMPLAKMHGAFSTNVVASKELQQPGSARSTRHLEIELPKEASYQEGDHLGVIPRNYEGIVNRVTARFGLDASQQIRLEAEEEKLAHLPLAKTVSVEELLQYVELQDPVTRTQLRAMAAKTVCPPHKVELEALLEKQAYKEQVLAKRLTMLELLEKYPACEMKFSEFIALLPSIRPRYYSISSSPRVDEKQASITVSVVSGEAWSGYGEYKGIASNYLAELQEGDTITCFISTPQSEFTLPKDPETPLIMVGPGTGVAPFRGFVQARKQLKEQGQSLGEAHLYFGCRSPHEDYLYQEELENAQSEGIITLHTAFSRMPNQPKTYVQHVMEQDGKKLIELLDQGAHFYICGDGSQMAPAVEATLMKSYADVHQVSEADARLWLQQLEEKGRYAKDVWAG

B1: Wild type (Phe87): Cytochrome P450 BM3 (CYP102A1) from Bacillus megaterium, wild type, Phe at position 87 (protein, UniProt P14779 1-1049, looked up)
Bifunctional cytochrome …: T1 sequence (P14779 1-1049 R48L/E65G/F82I/F88V/E144G/L189Q/Y199C/E268V/H286Y/G416S) with L48R, G65E, I82F, V88F, G144E, Q189L, C199Y, V268E, Y286H, S416G

Tests used:
mutant Val87 (M11) = molecular target: T1, mutant Val87 (M11); assay type: biochemical, Bacillus megaterium; conditions: 1 μM ketoconazole
[1] = Lauric acid induced NADPH consumption; assay type: biochemical; conditions: 0.1 mM lauric acid
[2] = Alkoxyresorufin-induced NADPH consumption; assay type: biochemical; conditions: 20 nM enzyme, 200 µM NADPH, 25 °C
[3] = Alkoxyresorufin O-dealkylation by CYP102A1 M11 mutants and wild-type CYP102A1; assay type: biochemical; conditions: 20 µM alkoxyresorufin, 20 nM P450 BM3, 25 °C
[4] = benzyloxyresorufin as the substrate, data not shown

Molecule | Inhibition of lauric acid induced NADPH consumption (mutant Val87 (M11); 0.1 mM lauric acid) | Inhibition of substrate-induced NADPH consumption (mutant Val87 (M11); [4]) | Inhibition of the O-dealkylation reaction (mutant Val87 (M11); [4]) | Effect of lauric acid on NADPH consumption [1] | Specific activity of NADPH consumption, DMSO ([2]; no substrate, solvent DMSO (2%) only) | Specific activity of alkoxyresorufin-induced NADPH consumption, side chain Ethyl ([2]; substrate ethoxyresorufin 20 µM) | Specific activity of alkoxyresorufin O-dealkylation, side chain n-Heptyl ([3]; substrate n-heptoxyresorufin) | Specific activity of alkoxyresorufin O-dealkylation, side chain n-Octyl ([3]; substrate n-octoxyresorufin)
CC(=O)N1CCN(c2ccc(OCC3COC(Cn4ccnc4)(c4ccc(Cl)cc4Cl)O3)cc2)CC1 (centres unmarked) [ketoconazole] | completely blocked | almost completely block | almost completely block |  |  |  |  | 
B1 |  |  |  | strongly stimulated | 45 nmol NADPH/min/nmol P450 | 3,970 nmol NADPH/min/nmol P450 | 0.17 nmol resorufin/min/nmol P450 | 0.18 nmol resorufin/min/nmol P450
